Experimental data taken from patent publication US12679878B2, “CRF2 receptor agonists and their use in therapy” (SANOFI, priority 2020, dated 2026).
Starred links: 1 amine or outer side, 2 acyl side, 3 side chain; linkers in the order of their positions; H or OH if unused. Non-standard residues stand in square brackets, D forms with d. Groups on a side chain read outwards from the residue. No end group written: not given here. *: point of attachment. C20 diacid = O=C(O)CCCCCCCCCCCCCCCCCCC(=O)*; C18 diacid = O=C(O)CCCCCCCCCCCCCCCCC(=O)*; γGlu = O=C(O)[C@H](CCC(=O)[*:2])N[*:1]; AEEA = NCCOCCOCC(=O)O; Aib = CC(C)(N)C(=O)O

T1: anti-target CRF1R receptor (UniProt P34998 24-415, limits assumed)
T1 sequence (looked up): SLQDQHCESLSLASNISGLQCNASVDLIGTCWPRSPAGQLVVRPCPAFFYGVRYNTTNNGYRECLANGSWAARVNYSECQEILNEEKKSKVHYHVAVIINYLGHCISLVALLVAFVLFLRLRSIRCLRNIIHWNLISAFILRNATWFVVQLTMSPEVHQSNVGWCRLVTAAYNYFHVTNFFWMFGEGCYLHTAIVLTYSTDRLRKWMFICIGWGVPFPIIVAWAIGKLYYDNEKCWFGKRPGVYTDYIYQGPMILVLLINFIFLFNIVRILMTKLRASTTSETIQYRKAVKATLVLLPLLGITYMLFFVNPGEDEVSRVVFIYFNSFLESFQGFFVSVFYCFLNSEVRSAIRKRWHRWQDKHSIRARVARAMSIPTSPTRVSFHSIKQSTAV

T2: endogenous human CRF2 (NCI-H82 cells) (human, UniProt Q13324 20-411)
T2 sequence (looked up): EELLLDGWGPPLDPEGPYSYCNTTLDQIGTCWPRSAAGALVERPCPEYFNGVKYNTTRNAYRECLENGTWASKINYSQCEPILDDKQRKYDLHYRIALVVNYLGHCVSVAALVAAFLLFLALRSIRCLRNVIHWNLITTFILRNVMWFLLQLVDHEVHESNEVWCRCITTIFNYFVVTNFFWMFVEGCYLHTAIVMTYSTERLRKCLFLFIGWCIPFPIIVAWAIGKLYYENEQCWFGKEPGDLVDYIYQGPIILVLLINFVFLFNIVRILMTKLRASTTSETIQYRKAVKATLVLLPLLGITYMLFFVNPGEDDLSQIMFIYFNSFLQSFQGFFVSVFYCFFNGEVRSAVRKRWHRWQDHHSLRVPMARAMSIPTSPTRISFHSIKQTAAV


What was measured:
Assay in all cases: cell-based or functional assay
rat CRF2R α receptor = rat CRF2R α receptor (rat, UniProt P47866 20-411)
[1] = target: T1, anti-target CRF1R receptor
[2] = target: T2, endogenous human CRF2 (NCI-H82 cells)

| Binder | EC50 [nM], 0% HSA (cAMP, A7R5 cells) (rat CRF2R α receptor) [nM] | EC50[nM] 0% HSA (cAMP, CRF1R-overexpression CHO cells) [1] [nM] | Emax (%) (cAMP, CRF1R-overexpression CHO cells) [1] | EC50 [nM] (cAMP, NCI-H82 cells) [2] |
| --- | --- | --- | --- | --- |
| IVLSLD[dV]PIKLK([AEEA-AEEA-γGlu-C18 diacid])QILLKQERQK[Aib]QRQQAEKNKQILAQV-NH2 (N-terminus assumed; SMILES CC[C@H](C)[C@H](N)C(=O)N[C@H](C(=O)N[C@@H](CC(C)C)C(=O)N[C@@H](CO)C(=O)N[C@@H](CC(C)C)C(=O)N[C@@H](CC(=O)O)C(=O)N[C@@H](C(=O)N1CCC[C@H]1C(=O)N[C@H](C(=O)N[C@@H](CCCCN)C(=O)N[C@@H](CC(C)C)C(=O)N[C@@H](CCCCNC(=O)COCCOCCNC(=O)COCCOCCNC(=O)CC[C@H](NC(=O)CCCCCCCCCCCCCCCCC(=O)O)C(=O)O)C(=O)N[C@@H](CCC(N)=O)C(=O)N[C@H](C(=O)N[C@@H](CC(C)C)C(=O)N[C@@H](CC(C)C)C(=O)N[C@@H](CCCCN)C(=O)N[C@@H](CCC(N)=O)C(=O)N[C@@H](CCC(=O)O)C(=O)N[C@@H](CCCNC(=N)N)C(=O)N[C@@H](CCC(N)=O)C(=O)N[C@@H](CCCCN)C(=O)NC(C)(C)C(=O)N[C@@H](CCC(N)=O)C(=O)N[C@@H](CCCNC(=N)N)C(=O)N[C@@H](CCC(N)=O)C(=O)N[C@@H](CCC(N)=O)C(=O)N[C@@H](C)C(=O)N[C@@H](CCC(=O)O)C(=O)N[C@@H](CCCCN)C(=O)N[C@@H](CC(N)=O)C(=O)N[C@@H](CCCCN)C(=O)N[C@@H](CCC(N)=O)C(=O)N[C@H](C(=O)N[C@@H](CC(C)C)C(=O)N[C@@H](C)C(=O)N[C@@H](CCC(N)=O)C(=O)N[C@H](C(N)=O)C(C)C)[C@@H](C)CC)[C@@H](C)CC)[C@@H](C)CC)C(C)C)C(C)C) [peptide of SEQ ID NO: 135] | 0.13 | > 1000 | 28.4 | 110 |
| IVLSLDVPIKLK([AEEA-AEEA-γGlu-C18 diacid])KILLKQERQKK[Aib]REQAETNKQILERV-NH2 (N-terminus assumed; SMILES CC[C@H](C)[C@H](N)C(=O)N[C@H](C(=O)N[C@@H](CC(C)C)C(=O)N[C@@H](CO)C(=O)N[C@@H](CC(C)C)C(=O)N[C@@H](CC(=O)O)C(=O)N[C@H](C(=O)N1CCC[C@H]1C(=O)N[C@H](C(=O)N[C@@H](CCCCN)C(=O)N[C@@H](CC(C)C)C(=O)N[C@@H](CCCCNC(=O)COCCOCCNC(=O)COCCOCCNC(=O)CC[C@H](NC(=O)CCCCCCCCCCCCCCCCC(=O)O)C(=O)O)C(=O)N[C@@H](CCCCN)C(=O)N[C@H](C(=O)N[C@@H](CC(C)C)C(=O)N[C@@H](CC(C)C)C(=O)N[C@@H](CCCCN)C(=O)N[C@@H](CCC(N)=O)C(=O)N[C@@H](CCC(=O)O)C(=O)N[C@@H](CCCNC(=N)N)C(=O)N[C@@H](CCC(N)=O)C(=O)N[C@@H](CCCCN)C(=O)N[C@@H](CCCCN)C(=O)NC(C)(C)C(=O)N[C@@H](CCCNC(=N)N)C(=O)N[C@@H](CCC(=O)O)C(=O)N[C@@H](CCC(N)=O)C(=O)N[C@@H](C)C(=O)N[C@@H](CCC(=O)O)C(=O)N[C@H](C(=O)N[C@@H](CC(N)=O)C(=O)N[C@@H](CCCCN)C(=O)N[C@@H](CCC(N)=O)C(=O)N[C@H](C(=O)N[C@@H](CC(C)C)C(=O)N[C@@H](CCC(=O)O)C(=O)N[C@@H](CCCNC(=N)N)C(=O)N[C@H](C(N)=O)C(C)C)[C@@H](C)CC)[C@@H](C)O)[C@@H](C)CC)[C@@H](C)CC)C(C)C)C(C)C) [peptide of SEQ ID NO: 101] | 1.02 | > 1000 | -0.34 | 4.1 |
| IVLSLDVPIKLK([AEEA-AEEA-γGlu-C20 diacid])QILLEQEKQK[Aib]QREQAETNKQILAQV-NH2 (N-terminus assumed; SMILES CC[C@H](C)[C@H](N)C(=O)N[C@H](C(=O)N[C@@H](CC(C)C)C(=O)N[C@@H](CO)C(=O)N[C@@H](CC(C)C)C(=O)N[C@@H](CC(=O)O)C(=O)N[C@H](C(=O)N1CCC[C@H]1C(=O)N[C@H](C(=O)N[C@@H](CCCCN)C(=O)N[C@@H](CC(C)C)C(=O)N[C@@H](CCCCNC(=O)COCCOCCNC(=O)COCCOCCNC(=O)CC[C@H](NC(=O)CCCCCCCCCCCCCCCCCCC(=O)O)C(=O)O)C(=O)N[C@@H](CCC(N)=O)C(=O)N[C@H](C(=O)N[C@@H](CC(C)C)C(=O)N[C@@H](CC(C)C)C(=O)N[C@@H](CCC(=O)O)C(=O)N[C@@H](CCC(N)=O)C(=O)N[C@@H](CCC(=O)O)C(=O)N[C@@H](CCCCN)C(=O)N[C@@H](CCC(N)=O)C(=O)N[C@@H](CCCCN)C(=O)NC(C)(C)C(=O)N[C@@H](CCC(N)=O)C(=O)N[C@@H](CCCNC(=N)N)C(=O)N[C@@H](CCC(=O)O)C(=O)N[C@@H](CCC(N)=O)C(=O)N[C@@H](C)C(=O)N[C@@H](CCC(=O)O)C(=O)N[C@H](C(=O)N[C@@H](CC(N)=O)C(=O)N[C@@H](CCCCN)C(=O)N[C@@H](CCC(N)=O)C(=O)N[C@H](C(=O)N[C@@H](CC(C)C)C(=O)N[C@@H](C)C(=O)N[C@@H](CCC(N)=O)C(=O)N[C@H](C(N)=O)C(C)C)[C@@H](C)CC)[C@@H](C)O)[C@@H](C)CC)[C@@H](C)CC)C(C)C)C(C)C) [peptide of SEQ ID NO: 81] | 0.94 | > 1000 | 23.3 | 110 |
| IVLSLD[dV]PIKLK([AEEA-AEEA-γGlu-C18 diacid])QILLKQERQKKQREQAEKNKQILEQV-NH2 (N-terminus assumed; SMILES CC[C@H](C)[C@H](N)C(=O)N[C@H](C(=O)N[C@@H](CC(C)C)C(=O)N[C@@H](CO)C(=O)N[C@@H](CC(C)C)C(=O)N[C@@H](CC(=O)O)C(=O)N[C@@H](C(=O)N1CCC[C@H]1C(=O)N[C@H](C(=O)N[C@@H](CCCCN)C(=O)N[C@@H](CC(C)C)C(=O)N[C@@H](CCCCNC(=O)COCCOCCNC(=O)COCCOCCNC(=O)CC[C@H](NC(=O)CCCCCCCCCCCCCCCCC(=O)O)C(=O)O)C(=O)N[C@@H](CCC(N)=O)C(=O)N[C@H](C(=O)N[C@@H](CC(C)C)C(=O)N[C@@H](CC(C)C)C(=O)N[C@@H](CCCCN)C(=O)N[C@@H](CCC(N)=O)C(=O)N[C@@H](CCC(=O)O)C(=O)N[C@@H](CCCNC(=N)N)C(=O)N[C@@H](CCC(N)=O)C(=O)N[C@@H](CCCCN)C(=O)N[C@@H](CCCCN)C(=O)N[C@@H](CCC(N)=O)C(=O)N[C@@H](CCCNC(=N)N)C(=O)N[C@@H](CCC(=O)O)C(=O)N[C@@H](CCC(N)=O)C(=O)N[C@@H](C)C(=O)N[C@@H](CCC(=O)O)C(=O)N[C@@H](CCCCN)C(=O)N[C@@H](CC(N)=O)C(=O)N[C@@H](CCCCN)C(=O)N[C@@H](CCC(N)=O)C(=O)N[C@H](C(=O)N[C@@H](CC(C)C)C(=O)N[C@@H](CCC(=O)O)C(=O)N[C@@H](CCC(N)=O)C(=O)N[C@H](C(N)=O)C(C)C)[C@@H](C)CC)[C@@H](C)CC)[C@@H](C)CC)C(C)C)C(C)C) [peptide of SEQ ID NO: 137] | 0.14 | > 1000 | 22.5 | 120 |
| IVLSLD[dV]PIKLK([AEEA-AEEA-γGlu-C18 diacid])QILLKQERQK[Aib]QREQAEKNKQILAQV-NH2 (N-terminus assumed; SMILES CC[C@H](C)[C@H](N)C(=O)N[C@H](C(=O)N[C@@H](CC(C)C)C(=O)N[C@@H](CO)C(=O)N[C@@H](CC(C)C)C(=O)N[C@@H](CC(=O)O)C(=O)N[C@@H](C(=O)N1CCC[C@H]1C(=O)N[C@H](C(=O)N[C@@H](CCCCN)C(=O)N[C@@H](CC(C)C)C(=O)N[C@@H](CCCCNC(=O)COCCOCCNC(=O)COCCOCCNC(=O)CC[C@H](NC(=O)CCCCCCCCCCCCCCCCC(=O)O)C(=O)O)C(=O)N[C@@H](CCC(N)=O)C(=O)N[C@H](C(=O)N[C@@H](CC(C)C)C(=O)N[C@@H](CC(C)C)C(=O)N[C@@H](CCCCN)C(=O)N[C@@H](CCC(N)=O)C(=O)N[C@@H](CCC(=O)O)C(=O)N[C@@H](CCCNC(=N)N)C(=O)N[C@@H](CCC(N)=O)C(=O)N[C@@H](CCCCN)C(=O)NC(C)(C)C(=O)N[C@@H](CCC(N)=O)C(=O)N[C@@H](CCCNC(=N)N)C(=O)N[C@@H](CCC(=O)O)C(=O)N[C@@H](CCC(N)=O)C(=O)N[C@@H](C)C(=O)N[C@@H](CCC(=O)O)C(=O)N[C@@H](CCCCN)C(=O)N[C@@H](CC(N)=O)C(=O)N[C@@H](CCCCN)C(=O)N[C@@H](CCC(N)=O)C(=O)N[C@H](C(=O)N[C@@H](CC(C)C)C(=O)N[C@@H](C)C(=O)N[C@@H](CCC(N)=O)C(=O)N[C@H](C(N)=O)C(C)C)[C@@H](C)CC)[C@@H](C)CC)[C@@H](C)CC)C(C)C)C(C)C) [peptide of SEQ ID NO: 130] | 0.13 | > 1000 | 20.3 | 4.3 |
